US20120065254

Tests used:
[1] = molecular target: human complement C5 in serum (Homo sapiens) (UniProt P01031+P01031); experiment: cell_activity; conditions: 2'-F pyrimidines and 2'-OMe purines as printed, CGCU unmodified; complement-dependent sheep erythrocyte hemolysis
[2] = molecular target: T1, human C5a (L-form) (Homo sapiens) (UniProt P01031); experiment: SPR; conditions: L-RNA [all (L-RNA)]; 37 C, Mg, Ca
T1 sequence: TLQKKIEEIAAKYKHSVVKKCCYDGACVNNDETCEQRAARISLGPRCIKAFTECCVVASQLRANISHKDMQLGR

Sequence of human complement C5 in serum (Homo sapiens) (P01031 19-673 T389I, one chain of several): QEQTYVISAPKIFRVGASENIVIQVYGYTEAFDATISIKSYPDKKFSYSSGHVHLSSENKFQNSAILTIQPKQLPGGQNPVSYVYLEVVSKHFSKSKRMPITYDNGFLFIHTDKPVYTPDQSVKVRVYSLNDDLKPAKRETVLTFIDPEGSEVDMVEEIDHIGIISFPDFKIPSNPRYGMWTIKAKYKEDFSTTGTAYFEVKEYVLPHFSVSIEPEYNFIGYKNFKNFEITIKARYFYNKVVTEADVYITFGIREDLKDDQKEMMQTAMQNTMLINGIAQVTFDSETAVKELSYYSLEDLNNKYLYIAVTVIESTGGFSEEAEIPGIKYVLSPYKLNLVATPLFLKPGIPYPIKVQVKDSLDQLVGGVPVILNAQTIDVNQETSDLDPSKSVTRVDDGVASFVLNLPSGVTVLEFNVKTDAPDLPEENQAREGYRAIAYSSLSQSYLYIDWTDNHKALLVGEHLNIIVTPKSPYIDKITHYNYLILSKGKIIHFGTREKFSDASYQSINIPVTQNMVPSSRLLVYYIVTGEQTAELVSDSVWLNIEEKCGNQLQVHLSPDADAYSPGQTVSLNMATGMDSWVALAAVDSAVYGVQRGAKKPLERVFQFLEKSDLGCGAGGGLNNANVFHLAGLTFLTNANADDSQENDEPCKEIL

Substance C5C6 aptamer has an IC50 [1] of 1 µM.
For “UGCUGGACAGGACCAAGGUAAGGGCGGACCGAAAAACCUAGCAGCA [182-A5-002]”, the Kd [2] was 0.0003 µM.
